Residue numbers refer to the chain shown, from its start. Values belong to the binder of their own block, whether it stands above or below them.
How the values were obtained:
Details in all cases: remark: other sources report otherwise
[1] = molecular target: iPHF, P10636; experiment: Octet BLI, antibody on biosensor, iPHF in solution
[2] = molecular target: T1, enriched paired helical filament tau protein (ePHF) (human), P10636; experiment: direct ELISA, ePHF coated
[3] = molecular target: T1, enriched paired helical filament tau …; experiment: follow up analysis, method not stated

T1 sequence (P10636 other isoform, or with tags, fused parts or gaps limits assumed): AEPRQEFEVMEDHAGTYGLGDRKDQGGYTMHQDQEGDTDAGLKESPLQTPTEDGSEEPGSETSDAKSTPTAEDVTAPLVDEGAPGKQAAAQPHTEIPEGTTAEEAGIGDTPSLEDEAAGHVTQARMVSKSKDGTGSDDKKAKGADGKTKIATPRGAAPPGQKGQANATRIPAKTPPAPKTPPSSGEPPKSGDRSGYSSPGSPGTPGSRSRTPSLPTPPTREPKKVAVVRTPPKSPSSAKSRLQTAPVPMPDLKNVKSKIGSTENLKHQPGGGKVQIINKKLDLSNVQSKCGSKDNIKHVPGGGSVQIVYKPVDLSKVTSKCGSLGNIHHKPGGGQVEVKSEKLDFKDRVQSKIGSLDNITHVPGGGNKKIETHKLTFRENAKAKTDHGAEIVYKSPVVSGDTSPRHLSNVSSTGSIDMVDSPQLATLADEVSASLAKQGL
Chain of iPHF, P10636 (P10636 other isoform, or with tags, fused parts or gaps): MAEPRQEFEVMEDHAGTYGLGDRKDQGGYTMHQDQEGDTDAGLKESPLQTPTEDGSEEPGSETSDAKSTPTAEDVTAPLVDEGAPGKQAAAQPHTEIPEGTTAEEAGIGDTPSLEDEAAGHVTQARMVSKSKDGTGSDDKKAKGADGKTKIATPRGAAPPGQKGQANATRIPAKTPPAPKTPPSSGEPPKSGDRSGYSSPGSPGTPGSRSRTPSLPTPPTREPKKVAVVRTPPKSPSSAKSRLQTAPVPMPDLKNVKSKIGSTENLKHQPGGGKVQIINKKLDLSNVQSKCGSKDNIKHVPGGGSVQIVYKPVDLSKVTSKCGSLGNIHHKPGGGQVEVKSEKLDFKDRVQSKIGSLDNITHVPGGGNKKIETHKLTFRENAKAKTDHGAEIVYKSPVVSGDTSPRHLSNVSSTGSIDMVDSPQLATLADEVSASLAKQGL

Kd [1]: 0.3 nM
B1: V0022 (antibody, mouse IgG1, V domains shown)
VH: QVQLQQPGTELVKPGSSVNLSCKASGFTFTRYWMHWVKERPGHGLEWIGNINPNNGGTDFNEKFKNKATLTVHKSSTTVFIQLSSLTSEDSAVYYCARGTGTGAMDYWGQGTSVTVSS
VL: DVVMTQTPLSLPVSLGDQASISCRSSQSLVHNNGITYLYWYLQKPGQSPKLLIYRVSNRFSGVPDRFGGSGSGTDFTLKISRVEAEDLGVYFCFQGTHVPRTFGGGTKLEIK

EC50 [2]: 0.125 nM
selectivity for ePHF over wild type tau [3]: > 100 fold
B2: V0024 (antibody, mouse IgG1, V domains shown)
VH: QVQLQQPGTELVKPGASVKLSCKASGYTFTRFWMHWVKQRPGQGLEWIGNINPNNGGTDNNERFKSKATLTVDRSSSTAYMQLSSLTSEDSAVYYCARGTGTGAMDYWGQGTSVTVSS
VL: B1 VL with N32S, I35N, Y37H, N58S, G68S

Kd [1]: 4 nM
B3: V0023 (antibody, mouse IgG1, V domains shown)
VH: B2 VH with R31I, Q43H, N50K, T58G, N60Y, R63K, R74K, S77T, M81L
VL: B1 VL with Q18H, N32S, Y37H, K44R, S48T, G68S, R82S, K112E
